Results reported in article PMC3384312 (Nucleic Acids Research, 2012).
5‑acetamidofluorescein = fluorescein label from 5-iodoacetamidofluorescein attached at Cys

What was measured:
MEF2A (1-95) [1] = biological target: T1, MEF2A (1-95) (UniProt Q02078 1-95); test: SPR
T1 sequence: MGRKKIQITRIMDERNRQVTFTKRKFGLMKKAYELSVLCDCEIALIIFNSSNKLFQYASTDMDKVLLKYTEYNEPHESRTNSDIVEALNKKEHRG

MEF2A (1-95) [2] = biological target: T1, MEF2A (1-95); test: fluorescence polarisation
crystal structure = biological target: the molecule itself; test: crystal structure

B1: HDAC4 (AA 155-220) (domain or fragment)
chain: LKNKEKGKESAVASTEVKMKLQEFVLNKKKALAHRNLNHCISSDPRYWYGKTQHSSLDQSSPPQSG
binding result (MEF2A (1-95) [1]): binds

B2: HDAC4 fragment (AA 155-218) labeled by 5-Iodoacetamidofluorescein via Cys194 (domain or fragment, UniProt P56524 155-218, looked up)
chain: LKNKEKGKESAVASTEVKMKLQEFVLNKKKALAHRNLNHC(5‑acetamidofluorescein)ISSDPRYWYGKTQHSSLDQSSPPQ
binding result (MEF2A (1-95) [2]): binds

B3: MEF2A (1-78) (domain or fragment)
chain: MGRKKIQITRIMDERNRQVTFTKRKFGLMKKAYELSVLCDCEIALIIFNSSNKLFQYASTDMDKVLLKYTEYNEPHES
binding result (crystal structure): binds
